Assay [1] deals with T1, dog iRhom2 full length wild type, T7-tagged (dog, UniProt Q00M95 1-827).
T1 construct: whole, on cells; on MEF-DKO cells; also called Dog-iR2-FL-WT-T7
T1 sequence: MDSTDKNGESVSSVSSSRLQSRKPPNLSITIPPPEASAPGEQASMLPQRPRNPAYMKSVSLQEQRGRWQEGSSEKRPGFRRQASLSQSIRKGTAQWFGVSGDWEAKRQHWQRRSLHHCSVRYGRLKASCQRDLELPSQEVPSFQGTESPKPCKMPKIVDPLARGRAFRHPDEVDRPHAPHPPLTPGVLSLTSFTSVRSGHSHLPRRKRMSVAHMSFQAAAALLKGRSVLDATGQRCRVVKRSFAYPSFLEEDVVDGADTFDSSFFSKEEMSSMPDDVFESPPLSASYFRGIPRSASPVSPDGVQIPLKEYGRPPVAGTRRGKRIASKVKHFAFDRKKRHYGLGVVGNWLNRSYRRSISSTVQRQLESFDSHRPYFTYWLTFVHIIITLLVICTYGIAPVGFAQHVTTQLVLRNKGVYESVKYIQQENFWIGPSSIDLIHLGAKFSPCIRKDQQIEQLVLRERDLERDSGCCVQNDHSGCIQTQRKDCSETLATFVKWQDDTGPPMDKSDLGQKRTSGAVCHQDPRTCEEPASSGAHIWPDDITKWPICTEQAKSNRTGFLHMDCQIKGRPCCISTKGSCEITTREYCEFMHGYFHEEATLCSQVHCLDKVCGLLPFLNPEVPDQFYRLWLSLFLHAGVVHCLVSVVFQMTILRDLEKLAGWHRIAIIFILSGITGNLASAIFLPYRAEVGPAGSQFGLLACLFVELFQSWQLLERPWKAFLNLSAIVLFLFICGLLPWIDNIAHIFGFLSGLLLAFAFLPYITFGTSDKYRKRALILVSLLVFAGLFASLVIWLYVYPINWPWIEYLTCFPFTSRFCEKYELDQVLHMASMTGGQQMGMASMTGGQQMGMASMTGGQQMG
In words: FACS on MEF-DKO-iR2 Dog cells, 3 µg/ml. As for the experimental part:
In brief, immortalized MEF-DKO-EV control cells, MEF-DKO-rhesus-iR2-FL-WT-T7 cells, MEF-DKO-cyno-iR2-FL-WT-T7 cells, MEF-DKO-dog-iR2-FL-WT-T7 cells and MEF-DKO-rabbit-iR2-FL-WT-T7 cells, as well as their respective iRhom1 counterparts, were harvested with 10 mM EDTA in PBS, washed and resuspended in FACS buffer (PBS, 3% FBS, 0.05% sodium azide), and seeded in Nunc U-bottom 96-well plates (Thermo Fisher Scientific, USA) at approximately 3×10⁵ cells per well. To pellet cells and remove supernatants, the plates were centrifuged at 1,500 rpm and 4° C. for 3 minutes. For primary staining, cells were resuspended in 100 μl per well of either FACS buffer alone (controls), mouse monoclonal anti-T7 IgG (Merck Millipore, USA) at 3 μg/ml FACS buffer or the antibodies of the invention also at 3 μg/ml FACS buffer and incubated on ice for 1 hour.
Afterwards, plates were centrifuged at 1,500 rpm and 4° C. for 3 minutes and washed twice with 200 μl per well of FACS buffer. For secondary staining, cells were spun down and resuspended in 100 μl per well of PE-conjugated goat anti-mouse IgG F(ab′)2 detection fragment (Dianova, Germany) diluted 1:100 in FACS buffer. Protected from light, the cell suspensions were incubated on ice for 1 hour. […] Finally, cells were resuspended in 150 μl per well of FACS buffer and analyzed using a BD Accuri™ C6 Plus flow cytometer (Becton Dickinson, Germany).

The next assay deals with T2, hiR2-FL-L539A-T7 (human, UniProt Q6PJF5 1-856).
T2 construct: on MEF-DKO cells
T2 sequence: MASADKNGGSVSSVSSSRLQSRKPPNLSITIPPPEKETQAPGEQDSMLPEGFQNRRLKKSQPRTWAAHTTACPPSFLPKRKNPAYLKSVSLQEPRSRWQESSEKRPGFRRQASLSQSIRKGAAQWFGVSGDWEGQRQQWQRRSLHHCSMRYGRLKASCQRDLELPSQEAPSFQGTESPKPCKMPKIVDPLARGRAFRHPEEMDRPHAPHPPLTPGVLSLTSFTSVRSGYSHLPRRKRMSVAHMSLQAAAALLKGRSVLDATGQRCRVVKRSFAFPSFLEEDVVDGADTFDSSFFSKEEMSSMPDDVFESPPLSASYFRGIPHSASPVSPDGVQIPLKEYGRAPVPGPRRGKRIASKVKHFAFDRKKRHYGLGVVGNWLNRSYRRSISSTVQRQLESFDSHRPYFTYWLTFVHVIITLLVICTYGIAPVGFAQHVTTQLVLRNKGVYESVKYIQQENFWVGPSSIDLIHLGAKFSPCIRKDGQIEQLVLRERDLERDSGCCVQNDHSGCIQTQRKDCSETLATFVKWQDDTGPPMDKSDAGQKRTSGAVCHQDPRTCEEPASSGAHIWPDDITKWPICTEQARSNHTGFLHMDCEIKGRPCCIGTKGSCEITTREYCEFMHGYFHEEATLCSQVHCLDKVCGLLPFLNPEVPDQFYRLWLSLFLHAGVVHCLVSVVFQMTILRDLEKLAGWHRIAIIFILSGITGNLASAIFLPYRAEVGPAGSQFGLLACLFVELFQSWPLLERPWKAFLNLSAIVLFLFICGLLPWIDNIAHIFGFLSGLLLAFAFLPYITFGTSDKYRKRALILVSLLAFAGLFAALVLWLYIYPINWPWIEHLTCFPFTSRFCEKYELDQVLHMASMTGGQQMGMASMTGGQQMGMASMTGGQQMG
In words: FACS on MEF-DKO-hiR2-FL-L539A-T7 cells.

B1: antibody 16 (antibody, V domains shown)
VH: QVTLKESGPGILQPSQTLSLTCSFSGFSLSTFALGVGWIRQPSGRGLEWLAHIWWDDDKYYNPALKSRLTISKDTSKNHVFLKIANVDTADTATYYCARITTYYYGMDYWGQGTSVTVSS
VL: DIVLSQSPATLSVTPGDSVSLFCRASQSIGNHLHWYQQESHASPRLLIKYASQSISGIPSRFSGSGSGTDFTLSINSVETEDFGMYFCQQSYNWPLTFGAGTKLELK
notes: mouse IgG, kappa light chain; also called clone #16; purified antibody 16
On to B1, for which, in assay [1], the binding result is given as “binds”.

B2: antibody 3 (antibody, V domains shown)
VH: QVTLKESGPGILQPSQTLSLTCSFSGFSLTTFAMGIGWVRQPSGKGLEWLAHIWWDGEKYNNPVLKSRLTISKDTSKNQVFLRIANVDTPDTATYYCARISSIYYIIDNWGQGTSVTVSS
VL: DIVLTQSPATLSVTPGHSVSLSCRASQSISNNLHWYQKKSHESPRLLIKYVSQSISGIPSRFSGSGSGTDFTLSINSVETEDFGMYFCQQSYNWPLTFGAGTKLELK
notes: mouse IgG, kappa light chain; also called clone #3; purified antibody 3
With B2, the binding result in the assay with hiR2-FL-L539A-T7 is “no binding (tested: 3 µg/ml)”.

Source of the values: patent publication US20240287172A1 (SCIRHOM, published 2024).
